± gives the standard deviation of the averaged measurements.
Tested on: ATP
Assay: switch fluorescence ratio, 500 uM ATP over buffer (Cy3 cluster intensity, sum of 5 cycles each) (fold (ratio)); higher = stronger signal-on switching upon ATP binding; sequences stand for … in TCGTCGGCAGCGTCAGATGTGTATAAGAGACAGTTTTTTTTTTTTTTTTTTTTTTTTT…TC
Conditions: aptamer strand: ATP DNA aptamer (quencher-CACCTGGGGGAGTATTGCGGAGGAAGG + anchor), 100 nM annealed; ATP concentration: 500 uM
Outline: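 Between each of five buffer/ATP cycles, the flow-cell was stripped with NaOH and re-annealed. Each cycle imaged Cy3-labelled switching-strand clusters, annealed to 100 nM quencher-labelled ATP aptamer on a modified Illumina MiSeq flow-cell, first in selection buffer and then after 15 min with 500 uM ATP at 22 °C. The fluorescence ratio is summed target-cycle over summed buffer-cycle Cy3 intensity per cluster, averaged per switch-domain sequence, with clusters outside 100-1000 RFU excluded.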
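Note: ATP exposure 15 min at 22 °C before imaging.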

Sequence	switch fluorescence ratio
GGAAGAATGG	0.985 ± 0.024
TGCCTAAGAT	1 ± 0.021
TGAGGGGAAT	1 ± 0.012
GGTCTCTGGA	1.01 ± 0.06
TTATTTACTA	1.04 ± 0.011
AAGCCGGGTC	0.991 ± 0.0014
GTTGGAGGCT	0.989 ± 0.096
GGGGGCGCCG	1.01 ± 0.097
TTTTGGTATT	1.02 ± 0.044
GGCTGGACGG	1.01 ± 0.011
GGAGAGTCGG	0.977 ± 0.035
GCGGGCCGGG	0.988 ± 0.058
TTGGATTCAT	0.995 ± 0.016
CATTGGCGTA	1.02 ± 0.023
GGATTTTTGT	0.997 ± 0.022
AGAGTCTTTT	0.9934 ± 0.0016
AAAAATAATT	0.983 ± 0.028
TGCTCAATGA	0.9737 ± 0.0075
TAGCAGTATT	1.07 ± 0.065
TTTATACGGT	1.01 ± 0.005
TGCCGGGGGC	1.04 ± 0.025
TAATGTGTAC	1.024 ± 0.0044
TACAAATCTA	1 ± 0.036
TATTTCGGTT	1.002 ± 0.0096
AAAAGCGTGG	1 ± 0.019

Sequence	switch fluorescence ratio
TTGGCAAATG	0.988 ± 0.025
GGGCACGTGG	0.995 ± 0.035
AGAAACAAAC	1.041 ± 0.0083
CCTGTGCAGG	1.11 ± 0.02
GGTTCGGCTG	0.982 ± 0.012
GAGGTTAATA	1.04 ± 0.021
CAAGGGCCCA	0.994 ± 0.014
CAGTGGGGGT	1 ± 0.03
TTTGGTTGT	0.972 ± 0.013
CAACAAGGCA	1.02 ± 0.0071
TTGGGCGCAG	0.967 ± 0.019
AATTTGATAG	0.988 ± 0.018
TGATTCATGA	0.925 ± 0.033
GCTCGGATAA	1.0306 ± 0.00026
GGGGGTCCGA	0.9855 ± 0.0042
TCAAGATTAT	0.994 ± 0.027
AATGTTTTCT	1.05 ± 0.057
AAGGCAATTA	1.15 ± 0.033
TGTTGCTTAA	0.993 ± 0.019
AGACCGAGAC	1.18 ± 0.079
AGCTAGGCGC	1.01 ± 0.027
CAGTCAGAGT	0.985 ± 0.023
GAAGCAGCAG	1.1888 ± 0.00054
ATGAGGTTGC	0.978 ± 0.011
TAGCGGTTGT	0.999 ± 0.021

Sequence	switch fluorescence ratio
GGTCCTTAGG	1 ± 0.021
ATTTACATTA	1.03 ± 0.021
CTCTCAAGGT	1.05 ± 0.018
ATCCAGGGTA	1.01 ± 0.03
TGTTGGTGC	1.04 ± 0.013
GTTGGTGGGT	0.98 ± 0.032
CGGATTAATT	0.9862 ± 0.0024
CGTATCATGC	0.985 ± 0.011
TTTAGGCCGA	0.99 ± 0.043
TAAGGGGTGT	1.03 ± 0.027
CGGTGAATAT	0.9712 ± 0.0087
TATGTGAGGC	0.993 ± 0.011
CAAATAAGTA	1.01 ± 0.033
ATACAGGAAC	1.03 ± 0.038
TCGGAGTGGC	1.2 ± 0.19
CGCCCGCTGT	1.72 ± 0.65
CGTATGAAGC	0.972 ± 0.02
GTCTTCACGG	0.999 ± 0.01
ACTTTGCTAG	1.03 ± 0.024
GGGGATAGTG	0.997 ± 0.011
CCGTTGACCT	1.073 ± 0.01
TTACATGTTG	1.04 ± 0.04
TGAAAATAGG	0.9771 ± 0.0068
GGGAGGGTGT	1.09 ± 0.02
GGTACAGTTT	0.975 ± 0.019

Sequence	switch fluorescence ratio
CATGCTTCAT	0.988 ± 0.017
TAAAAACGGA	0.989 ± 0.042
GCCATGGACA	0.9847 ± 0.00086
CTCACGACGT	1.07 ± 0.019
TAAGATGTTT	0.957 ± 0.034
TTATGATGGT	0.992 ± 0.018
TGTTTTAGGC	0.977 ± 0.02
GGTTTCTAGA	0.984 ± 0.024
TGGGGCGGAG	0.979 ± 0.031
TCGTTGGATG	0.9829 ± 0.0013
ATGGGCAGTC	1.21 ± 0.41
GGCAATTAGG	1.04 ± 0.048
TTTAAGGCGG	0.989 ± 0.044
ATGAGTTCTC	1 ± 0.042
AAGGATAGGA	1 ± 0.014
TTCCTTCT	1.13 ± 0.11
ATGTTAGAAA	1.02 ± 0.032
ATGGTATTTG	0.998 ± 0.037
GGAGGGAGGT	1.01 ± 0.012
ACGACTGCGT	1.0213 ± 0.00018
TAGGCTGAGG	1.002 ± 0.0063
GAGAGGGGGT	0.998 ± 0.05
TCAAGCCGAG	1.08 ± 0.062
TACATTTTTT	1.01 ± 0.022
CTGGTTAACT	1.024 ± 0.0048

Sequence	switch fluorescence ratio
ACAGAGGAGC	1.062 ± 0.006
CGAATACATA	1.1 ± 0.011
GGTCTACATG	0.985 ± 0.0076
AGTAAGTGGG	0.956 ± 0.048
AAGCCGGGCT	1.02 ± 0.029
CAGGGCGATA	1.1 ± 0.033
TGGTAAGGGG	1.12 ± 0.25
TCGTAGTTGC	1.24 ± 0.027
CACCGGGAAC	1.56 ± 0.037
GCGCTGTCCG	0.9959 ± 0.0087
TTTATTTGAT	0.9955 ± 0.0012
CAGGGGCGGA	1.04 ± 0.03
TACTGAATTA	1.03 ± 0.03
CTAGGTGCAA	1.19 ± 0.091
AAGTTGCGTT	1.01 ± 0.015
GTGTGGCAGG	0.992 ± 0.024
TTATAGGGAG	0.97261 ± 0.00039
GAATTCGGAC	1.04 ± 0.016
ATCCGGGGTT	1.06 ± 0.057
TAAAGGGCGT	0.967 ± 0.021
GATTAAATGT	0.992 ± 0.014
AGAAGGTATG	1.0001 ± 0.0006
ACCCTCTGGG	1.01 ± 0.021
GCTAATGTTA	1.01 ± 0.03
CGTCGTTCTC	1.02 ± 0.07

Sequence	switch fluorescence ratio
ATGTTGTTGG	0.9676 ± 0.007
CATAGTTCGT	0.988 ± 0.016
GTGTGGGGCT	1 ± 0.019
ATGGAAATGG	0.996 ± 0.024
GGGTAGGATA	1.01 ± 0.012
TTTAGGAGGG	0.997 ± 0.019
AGGTTTGTAG	0.983 ± 0.013
TTACGTAGAT	1.12 ± 0.077
TGCATTTTTG	1.06 ± 0.053
TTTTCTCCGT	1.3 ± 0.43
TGCAGTAATA	1.53 ± 0.13
TCAGTGTTTT	1 ± 0.04
TCATGGGCCG	1.33 ± 0.43
GGATGACTGG	0.9993 ± 0.0061
ATTAGTGTGG	1 ± 0.033
TTAGAACACA	0.983 ± 0.0063
AACAGTTGTG	0.976 ± 0.017
TAGAGGCTAA	0.977 ± 0.013
TCCGGGGGTA	1.12 ± 0.12
TGTTGCCTGG	0.978 ± 0.023
TTATTTTAGC	0.976 ± 0.019
GCGAAAGGCT	1.03 ± 0.024
CGCTATTTCT	1.1 ± 0.051
AAGAGCTTTG	0.99 ± 0.013
TCGGGGCTCC	2.87 ± 2.6

Sequence	switch fluorescence ratio
AAAGTGTTCC	1.03 ± 0.017
CAAGGTAAGT	1.03 ± 0.056
TGGTGGGATC	1.03 ± 0.025
CTTACAGCTT	1.04 ± 0.023
GCGTAAAAAG	1.03 ± 0.011
AGCTTAGGGC	0.989 ± 0.03
CTGGCGAGTA	1.01 ± 0.016
ATCGATTGAG	0.971 ± 0.015
TTTTAGTT	0.993 ± 0.039
TAGTAGGGTT	0.986 ± 0.021
GGGACAAGTC	1.023 ± 0.0067
GAAGGGAGCA	1.02 ± 0.028
ACGAACAGTT	1.15 ± 0.047
CGGGGGAAAC	0.977 ± 0.015
TAACAGATGG	1.01 ± 0.029
TCACTGGGGA	0.995 ± 0.03
CGTATATGGG	0.995 ± 0.022
AGTACGTCTC	1.04 ± 0.0099
GGCCTGGACG	1.05 ± 0.015
TTGGCCTAAA	0.954 ± 0.04
TCTAAGTTGT	1.002 ± 0.0058
CGCCATATTT	1.03 ± 0.016
CCACTGTGGT	0.978 ± 0.013
TTTTTCGCTC	1.01 ± 0.042
TCAGGAGTTT	1.04 ± 0.011

Sequence	switch fluorescence ratio
GTTCTTGTTC	1.004 ± 0.0069
TTCTTAGAAA	0.991 ± 0.019
TAACATAATT	1 ± 0.023
CGGAGCTCTG	1.06 ± 0.015
CCGTATATCC	2.44 ± 0.16
TTAGTGGCTT	0.994 ± 0.035
CGGAAATGGG	1.023 ± 0.0022
TACTGGTTCT	0.984 ± 0.064
ATATGAGGGG	0.965 ± 0.027
TGGCTGAGAA	0.9723 ± 0.0028
AGTCCTGGCC	0.999 ± 0.022
ATAAGGTTGG	0.988 ± 0.029
TTGTTCAGGG	0.99 ± 0.013
TGAGTAAAGC	1.03 ± 0.062
AGACACTGAC	1.45 ± 0.028
GTTTTCGGAT	0.983 ± 0.013
GTGTAATTAT	0.9697 ± 0.0055
CAAGTTATAC	1.38 ± 0.15
TTGACAGGGC	0.952 ± 0.057
TGGCGGGGAC	1.1 ± 0.17
GATGTTTATG	0.975 ± 0.036
TATGATTCAG	0.98 ± 0.012
ATAGTACGCC	1.28 ± 0.33
GCTTGGATAA	1.02 ± 0.032
ATATAAGTGA	0.9543 ± 0.0063

From the supplement of paper PMC10126150
